Results: patent US20260209333A1 (VETMAB BIOSCIENCES, published 2026)
Blank lines part the entries; values can stand above or below the binder they belong to.

Columns and labels:
[1] = biological target: T1, Recombinant canine IL23 (single chain p40 + linker + p19, Avitag, polyHis tag) (canine); assay: SPR, Biacore 8K, antibody captured on Protein A chip, antigen as analyte, 25 C
T1 construct: Single chain p40-linker-p19 with a tag for site specific biotinylation and a polyHis tag, expressed in CHO cells as a monomeric protein; also called canine IL23 polypeptide
T1 chain: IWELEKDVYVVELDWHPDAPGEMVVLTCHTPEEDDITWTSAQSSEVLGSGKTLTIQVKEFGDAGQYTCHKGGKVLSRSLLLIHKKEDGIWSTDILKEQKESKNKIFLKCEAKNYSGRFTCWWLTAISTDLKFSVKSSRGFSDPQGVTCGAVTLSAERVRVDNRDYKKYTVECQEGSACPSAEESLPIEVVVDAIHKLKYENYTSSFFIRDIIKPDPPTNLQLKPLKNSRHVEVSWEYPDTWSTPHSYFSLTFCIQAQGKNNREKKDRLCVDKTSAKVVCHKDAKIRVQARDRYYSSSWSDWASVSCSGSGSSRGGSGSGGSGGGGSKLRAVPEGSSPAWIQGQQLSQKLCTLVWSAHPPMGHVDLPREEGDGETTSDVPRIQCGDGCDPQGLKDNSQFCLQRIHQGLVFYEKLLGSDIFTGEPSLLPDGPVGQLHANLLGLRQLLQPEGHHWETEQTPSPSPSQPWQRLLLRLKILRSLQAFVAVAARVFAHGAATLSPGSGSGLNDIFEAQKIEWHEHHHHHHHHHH
Description: (§1) This study was performed to measure the binding affinity of anti-IL23 antibodies to IL23 and p40 antigens using a Biacore 8K.
(§2) All the data were processed using the Biacore 8K Evaluation software version 3.0. Flow cell 1 and blank injection of buffer in each cycle were used as double reference for Response Units subtraction.

Canine p40 polypeptide = biological target: T2, Canine p40 polypeptide (canine, UniProt Q28268 23-329); assay: as above
T2 sequence (looked up): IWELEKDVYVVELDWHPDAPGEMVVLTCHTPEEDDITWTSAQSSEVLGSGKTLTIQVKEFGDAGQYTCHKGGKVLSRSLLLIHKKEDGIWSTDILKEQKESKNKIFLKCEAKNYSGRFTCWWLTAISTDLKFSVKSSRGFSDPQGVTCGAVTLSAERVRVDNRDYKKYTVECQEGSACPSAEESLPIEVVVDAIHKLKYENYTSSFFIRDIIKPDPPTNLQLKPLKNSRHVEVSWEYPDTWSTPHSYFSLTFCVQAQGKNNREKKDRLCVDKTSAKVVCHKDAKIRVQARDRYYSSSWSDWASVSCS
Description: as §1, §2

[2] = biological target: T1, Recombinant canine IL23 (single chain …); assay: Biacore affinity assay ('Active' = specific binding to canine IL23)
[3] = biological target: T3, Canine TNF-alpha (Sino Biologicals) (canine, UniProt P51742 77-233); assay: SPR, Biacore 8K, antibody captured on Protein A chip, antigen as analyte, 25 C
T3 construct: Bought protein; also called Canine TNFα
T3 sequence (P51742 77-233 limits assumed): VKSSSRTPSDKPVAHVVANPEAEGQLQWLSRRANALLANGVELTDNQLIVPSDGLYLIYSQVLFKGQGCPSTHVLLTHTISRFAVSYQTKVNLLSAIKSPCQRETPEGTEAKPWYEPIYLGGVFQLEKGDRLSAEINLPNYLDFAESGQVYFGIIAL
Description: This study was performed to measure the binding affinity of antibodies to antigens using a Biacore 8K.
as §2

Kd [1]: 0.58 nM
koff [1]: 0.00338 s⁻¹
kon [1]: 5.83e+06 M⁻¹ s⁻¹
Kd (Canine p40 polypeptide): 1.02 nM
koff (Canine p40 polypeptide): 0.00478 s⁻¹
kon (Canine p40 polypeptide): 4.68e+06 M⁻¹ s⁻¹
B1: Chimeric anti-IL23 antibody (clone C340 VL and VH domains fused to canine kappa light chain constant region and canine IgG-B constant region) (antibody, V domains shown)
VH: EVQLVQSGAEVKKPGESLKISCKGSGYSFTTYWLGWVRQMPGKGLDWIGIMSPVDSDIRYSPSFQGQVTMSVDKSITTAYLQWNSLKASDTAMYYCARRRPGQGYFDFWGQGTLVTVSS
VL: DIQMTQSPSSLSASVGDRVTITCRASQGISSWLAWYQQKPEKAPKSLIYAASSLQSGVPSRFSGSGSGTDFTLTISSLQPEDFATYYCQQYNIYPYTFGQGTKLEIKR
notes: also called Anti-IL23-VH-VL; Anti-IL23 (full length IgG form)

Kd [3]: 3.91 nM
koff [3]: 0.000818 s⁻¹
kon [3]: 209000 M⁻¹ s⁻¹
B4: Caninized anti-TNFα D2E7 antibody (caninized VL + canine kappa constant region; caninized VH + canine IgG-B constant region) (antibody, V domains shown)
VH: EVQLVESGGDLVKPAESLRLSCVASGFTFDDYAMHWVRQAPGKGLEWVSAITWNSGHIDYADSVEGRFTISRDNARNTLYLQMNSLRAEDTAVYYCAKVSYLSTASSLDYWGQGTLVTVSS
VL: DIVMTQTPLSLSVSPGEPASISCRASQGIRNYLAWYQQKPGKAPKLLIYAASTLQSGVPDRFSGSGSGTDFTLRIGRVEAEDAGIYYCQRYNRAPYTFGQGTRLEVRR
notes: Expressed in Expi293F cells, 150 kDa, captured on a Protein A chip; also called Caninized Anti-TNF-VH-VL

binding result [2]: binds
B5: Anti-IL23 caninized VL variant V2 / caninized VH variant V6 (antibody, human IgG1, V domains shown)
VH: EVQLVESGGDLVKPGGSLRLSCKGSGYSFTTYWLGWVRQAPGKGLQWIGIMSPVDSDIRYADAVKGRFTVSRDNAKRTLYLQMNSLRAEDTAIYYCARRRPGQGYFDFWGQGTLVTVSS
VL: DIVMTQTPLSLSVSPGEPASISCRASQGISSWLAWYLQKAGQSPRLLPYAASSLQSGVPDRFSGSGSGTDFTLRIGRVEAEDAGIYYCQQYNIYPYTFGQGTRLEVR
notes: also called VL V2 + VH V6

The next lines start with the binder.

B2: Anti-IL23 C340 VL / caninized VH variant V1 (antibody, V domains shown)
VH: EVQLVQSGAEVKKPGASVKVSCKGSGYSFTTYWLGWVRQAPGAGLDWMGIMSPVDSDIRYAGKFQGQVTMSVDTSTSTAYMELSSLRAGDIAVYYCARRRPGQGYFDFWGQGTLVTVSS
VL: DIQMTQSPSSLSASVGDRVTITCRASQGISSWLAWYQQKPEKAPKSLIYAASSLQSGVPSRFSGSGSGTDFTLTISSLQPEDFATYYCQQYNIYPYTFGQGTKLEIK
notes: also called VL C340 + VH V1
binding result [2]: binds

B3: Caninized anti-IL23 with VL domain V2.1 and VH domain V1.1 (antibody, V domains shown)
VH: EVQLVQSGAEVKKPGASVKVSCKGSGYSFTTYWLGWVRQAPGAGLDWMGIMSPVDSDIRYSPSFQGQVTMSVDTSTSTAYMELSSLRAGDIAVYYCARRRPGQGYFDFWGQGTLVTVSS
VL: DIVMTQTPLSLSVSPGEPASISCRASQGISSWLAWYQQKAEKAPKSLIYAASSLQSGVPDRFSGSGSGTDFTLRIGRVEAEDAGIYYCQQYNIYPYTFGQGTRLEVR
notes: also called VL V2.1 + VH V1.1; exemplary caninized anti-IL23
binding result [2]: binds
